Laboratory results from publication PMC9894557, “The opportunistic pathogen Pseudomonas aeruginosa exploits bacterial biotin synthesis pathway to benefit its infectivity” (PLOS Pathogens, 2023).
Substitutions are numbered along the chain they refer to. Names may count otherwise.

B1: Pseudomonas aeruginosa BioH (PA0502) S66A (enzyme)
chain: MRDHLILLPGWGLGSAPLEPLRDALHEREPHLNVLIEPLPSLDDAADWLDELDDNLPRDSWLAGWALGGMLAGELAARRGDDCRGLLTLASNPCFRVREDWPNAMPAETFEDFFEAFLLEPHLTRKRFTLLVSQGARDPRTLARQLQVALPQLEREALVAGLQLLGQLDTRAALENFRGPQLHLFAEADALVPLAAAEALLEWLPDVEVSTLAASHGLPLECPDEVAGAILRFLREGDDA
notes: BioH (PA0502), Pseudomonas aeruginosa PAO1, catalytic triad mutant; Purification is described only for the wild type; also called BioH(S66A); source: E. coli, from pET28a::bioH(S66A), purified
B2: Pseudomonas aeruginosa BioH (PA0502) D189A (enzyme)
chain: B1 chain with A66S, D189A
notes: BioH (PA0502), Pseudomonas aeruginosa PAO1, catalytic triad mutant; Purification is described only for the wild type; also called BioH(D189A); source: E. coli, from pET28a::bioH(D189A), purified

Biological target: the molecule itself
Experiment: SEC; gel filtration on a Superdex 75 column; Streptococcus suis FakB2 (~33 kDa, known monomer) as size control

Protein | binding result
B1 | binds
B2 | binds
